The assay concerns the target wild type human VEGFR-3 (Flt4), long form (human) (UniProt P35916). As to the kind of experiment: cell-based or functional assay.
Sequence of UniProt P35916 (P35916 25-1363 limits assumed): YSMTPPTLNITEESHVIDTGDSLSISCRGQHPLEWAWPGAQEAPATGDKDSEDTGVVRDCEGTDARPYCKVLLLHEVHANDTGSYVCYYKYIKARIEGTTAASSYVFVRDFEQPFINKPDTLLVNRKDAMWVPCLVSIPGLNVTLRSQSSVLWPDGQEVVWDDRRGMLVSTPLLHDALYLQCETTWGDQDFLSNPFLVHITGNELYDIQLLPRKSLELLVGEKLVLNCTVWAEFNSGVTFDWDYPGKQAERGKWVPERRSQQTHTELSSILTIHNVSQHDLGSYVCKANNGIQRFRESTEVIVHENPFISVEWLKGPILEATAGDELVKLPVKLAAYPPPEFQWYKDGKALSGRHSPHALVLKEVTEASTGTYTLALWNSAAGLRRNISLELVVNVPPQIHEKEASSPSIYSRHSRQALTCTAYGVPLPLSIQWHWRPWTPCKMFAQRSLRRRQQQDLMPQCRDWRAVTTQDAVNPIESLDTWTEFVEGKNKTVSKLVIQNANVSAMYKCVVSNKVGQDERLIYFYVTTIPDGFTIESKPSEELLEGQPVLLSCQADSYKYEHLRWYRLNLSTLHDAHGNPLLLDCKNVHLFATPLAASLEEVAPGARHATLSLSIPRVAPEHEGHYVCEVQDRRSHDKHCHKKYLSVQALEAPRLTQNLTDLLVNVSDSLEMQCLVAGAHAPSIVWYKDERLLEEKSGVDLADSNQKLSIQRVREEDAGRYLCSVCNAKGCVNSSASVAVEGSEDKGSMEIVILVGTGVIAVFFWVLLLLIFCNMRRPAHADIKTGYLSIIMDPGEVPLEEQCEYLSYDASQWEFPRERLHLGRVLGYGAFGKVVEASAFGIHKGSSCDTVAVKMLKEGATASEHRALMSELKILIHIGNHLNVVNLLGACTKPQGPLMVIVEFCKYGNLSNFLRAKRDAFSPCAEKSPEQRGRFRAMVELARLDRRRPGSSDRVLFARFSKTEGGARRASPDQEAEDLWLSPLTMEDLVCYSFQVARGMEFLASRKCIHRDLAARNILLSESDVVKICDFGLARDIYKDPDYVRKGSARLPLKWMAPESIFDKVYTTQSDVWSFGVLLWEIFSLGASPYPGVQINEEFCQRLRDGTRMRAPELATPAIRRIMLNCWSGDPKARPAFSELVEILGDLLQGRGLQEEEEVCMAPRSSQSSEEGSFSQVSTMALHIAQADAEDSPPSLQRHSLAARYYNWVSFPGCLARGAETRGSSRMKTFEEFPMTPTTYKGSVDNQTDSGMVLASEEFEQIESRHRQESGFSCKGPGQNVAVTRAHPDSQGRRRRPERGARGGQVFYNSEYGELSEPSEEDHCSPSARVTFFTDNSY

With “P1114L mutant of human VEGFR-3 (long form) (from UniProt P35916 25-1363) (receptor)”, the tyrosine phosphorylation of VEGFR-3 (immunoprecipitation and anti-phosphotyrosine Western blot), 293T cells co-transfected with 75% of WT and 25% of mutant plasmid was found to be 90 % decrease; the tyrosine phosphorylation of VEGFR-3 (immunoprecipitation and anti-phosphotyrosine Western blot), wild type and mutant vectors co-transfected at a 1:1 ratio (% of the wild type alone) turned out to be 4.
